# Experimental data as given in publication PMC2841689.
# Target: N74D HIV-1 CA-NC complexes (HIV-1)
# Assay: co-sedimentation
Substance,fold more precipitated than by wild-type CA-NC complexes,"fold difference in co-purification, wild-type over N74D CA-NC"
"rhesus TRIM5alpha, HA-tagged (from UniProt Q0PF16 1-497) (natural protein)",2 fold,–
"human CPSF6-358 (C-terminally truncated CPSF6), HA-tagged (from UniProt Q16630-2 1-358) (domain or fragment)",–,3.9 fold
